{
  "source": "paper PMC6128652",
  "about": "“Structure of the Cladosporium fulvum Avr4 effector in complex with (GlcNAc)6 reveals the ligand-binding mechanism and uncouples its intrinsic function from recognition by the Cf-4 resistance protein” (PLoS Pathogens, 2018)",
  "key": {"[1]": {"test_system": "Cf-4 immune receptor", "test": "Pure protein infiltrations into tomato leaves of cv Purdue 135 (+ Cf-4), hypersensitive response", "assay_type": "in vivo", "conditions": "both 5 μg/ml and 10 μg/ml, 5 dpi", "source_text": "Tomato seeds were obtained from the Tomato Genetic Resource Center (TGRC) at UC Davis. WT-CfAvr4 and mutants thereof with single point mutations at selected amino acids were produced and purified from E. coli Rosetta-gami B cells as description above. […]"}, "[2]": {"test_system": "Cf-4", "test": "Agrobacterium tumefaciens transient transformation assay (ATTA): co-expression with Cf-4 in Nicotiana benthamiana leaves", "assay_type": "in vivo", "conditions": "N. benthamiana, three cell density ratios 0.5:1, 1:1, 2:1", "method": "The Agrobacterium tumefaciens transient transformation assay (ATTA) was used for the transient co-expression into leaves of Nicotiana benthamiana of Cf-4 with the WT-CfAvr4 and the mutants thereof tested in this study. Briefly, N. benthamiana plants were grown in a growth chamber with 16 h of artificial light and 70% humidity, at 25°C for 4 weeks. The true mature form of the WT-CfAvr4 (i.e. between Lys30-Gln115) and of the mutants thereof were singly cloned into the binary expression vector pICH47742 downstream of the PR1A signal sequence of Nicotiana tabacum for targeted secretion into the apoplast, and under the control of CaMV 35S promoter and NOS terminator. The tomato Cf-4 was cloned into pMOG800 as descripted before. Binary vector plasmids were transformed into A. tumefaciens strain GV3101 by electroporation. For the ATTA assay, agrobacteria transformed with pMOG800:Cf-4 was grown in 10mL LB-mannitol medium (LB medium with 10 g/L mannitol) amended with 50 μg/mL kanamycin and 25 μg/mL rifampicin, whereas agrobacteria transformed with pICH47742:WT-CfAvr4 or pICH4774:CfAvr4-mutants were grown in LB-mannitol amended with 100 μg/mL carbenicillin and 25 μg/mL rifampicin. All cultures were incubated at 28°C for 2 days, after which period they were pelleted at 2800g for 15 min, re-suspended in MMAi medium (5 g/L Murashige and Skoog basal salts, 20 g/L sucrose, 10 mM MES, and […]) at an optical cell density (A600) of 2.0, and further incubated for 2–4 h at room temperature. Agroinfiltrations were performed by mixing agrobacteria containing pMOG800:Cf-4 with agrobacteria containing pICH47742_WT-CfAvr4 or pICH47742:CfAvr4-mutants at three different ratios of optical cell densities, i.e. A6000.5:A6001.0, A6000.5:A6000.5, and A6000.5:A6000.25 of. The mixture of agrobacteria was infiltrated into the leaves of N. benthamiana plants using a 1 mL syringe and the induction of an HR in the infiltrated leaf sectors was evaluated at 5 days post-infiltrations. Control infiltrations were made using only the pMOG800:Cf-4 transformed agrobacteria and the agrobacteria containing pICH47742:CfAvr4 or the mutants thereof without mixing the two cultures, at cell densities of A6000.25, A6000.5, and A6001.0."}, "[3]": {"test": "Isothermal titration calorimetry (ITC) of CfAvr4 variants with chitin hexasaccharide", "assay_type": "binding", "conditions": "compared with PfAvr4", "method": "A stock solution of the monomer of N-acetylglucosamine was prepared by dissolving the dry powder in a buffer containing 10 mM Bis-Tris, pH 6.5, 100 mM NaCl to a concentration of 0.100 g/L using analytic techniques. Standard solution of 0, 0.010, 0.025, 0.050, 0.075 g/L were prepared by serial dilutions. Using glass test tubes and pipets, 100 μL of each standard was mixed with 300μL of concentrated sulfuric acid and vortexed for 10 sec to mix. Solutions were incubated at RT for 10 min and then placed on ice to stop the reaction. […] Analytically prepared solution of the di- and tri-saccharide scaled linearly to the calibration curve. To determine the concentration of the chitin hexasaccharide solutions used in ITC, the solutions were diluted into the dynamic range of the calibration curve (S12 Fig) and subjected to the above procedure.\nAll ITC experiments were performed on a TA Instruments low volume NanoITC with a 186uL reaction cell and a reference cell filled with degassed Milli-Q grade water. Reactions were run in a buffer containing 10mM Bis-Tris, pH 6.5, 100 mM NaCl. The reservoir solution was filled with protein solution and continuously stirred while Chitin hexasaccharide solutions titrated in 2.5μL aliquots for 19 injections, with an initial 1μL injection, for a total injection volume of 48.5μL. The carbohydrate solutions were made by dissolving the dry powder in buffer to a concentration of 20mM (confirmed using methods described above) and then diluted to the working concentration using the final buffer exchange flow through to match the buffers as closely as possible. The integrated heats, after correction for the heat of dilution were analyzed using the NanoAnalyze software from […]. An individual binding site model was used to fit the binding isotherm. All experiments were replicated a minimum of three times."}, "[4]": {"test_system": "subtilisin", "test": "Subtilisin treatment (resistance against proteolytic degradation)", "assay_type": "in vitro ADME", "design": "key to Stability (Subtilisin assay): S: stable; PU: partially unstable", "conditions": "500 ng/μL subtilisin, 30 min, room temperature", "method": "The WT-CfAvr4 and selected mutants thereof were exposed to the non-specific protease subtilisin in order to determine their resistance against proteolytic degradation. Treatments with subtilisin were made as previously described with minor modifications. Briefly, 40 μM of the E. coli-produced CfAvr4 and the selected CfAvr4 mutants were mixed with 10 mM of calcium chloride and 500 ng/μL of subtilisin (Sigma-Aldrich) in a total volume of 15 μL. Samples were incubated for 30 min at room temperature, after which period they were denatured by mixing with 10 mM PMSF and SDS-PAGE loading buffer, and heating at 98°C for 10 min. Digestion products were visualized on an SDS-PAGE after staining with Coomassie blue."}, "[5]": {"test_system": "tomato leaves of cv Moneymaker (–Cf-4)", "test": "Pure protein infiltrations into tomato leaves of cv Moneymaker (–Cf-4), hypersensitive response", "assay_type": "in vivo", "method": "Tomato seeds were obtained from the Tomato Genetic Resource Center (TGRC) at UC Davis. WT-CfAvr4 and mutants thereof with single point mutations at selected amino acids were produced and purified from E. coli Rosetta-gami B cells as description above. Proteins were infiltrated at a concentration of 5 μg/mL and 10 μg/mL into the back side of MM or Purdue 135 tomato leaves using a one mL syringe and the HR response was recorded at 6 days post-infiltrations."}, "[6]": {"test_system": "germlings of Trichoderma viride", "test": "In vitro protection assay of T. viride germlings against chitinases", "assay_type": "cell-based", "conditions": "5 μM protein with chitinases and β-1,3-glucanases", "method": "The ability of the WT-CfAvr4 and of ChBD mutants to protect against chitinases was evaluated in in vitro protection assays conducted as described before. Briefly, spores of T. viride (3∙10^3) were pre-germinated overnight at room temperature in 100 μl of half-strength PDB medium in 96 well plates. The following day, 5 μM of WT-CfAvr4 or ChBD mutants were mixed with 7.5 units of Zymolyase (Zymo Research cat. no. E1004) and 0.2 units of bacterial chitinases (Sigma-Aldrich cat. no. C6137) and the mixture was added to the microtitre plate wells containing the pre-germinated spores in a final volume of 150 μl. Plates were incubated at 25°C for 6–8 h before evaluating under the microscope fungal growth and the ability of the proteins to provide protection against chitinases. Zymolase has β-1,3 glucanase and β-1,3-glucan laminaripentaohydrolase activity and is added to the mixture in order to remove the surface glucans from the fungal cell wall and thus expose the underlying chitin layer."}},
  "note": "“Also recorded” adds a separate entry of the source.",
  "data": [
    {"molecule": "WT-CfAvr4: wild-type Avr4 effector protein of Cladosporium fulvum, CBM14 chitin-binding lectin, E. coli-produced mature form Lys30-Gln115 (protein, left off: 6x His (two), N-terminal, cleaved) KAPKTQPYNPCKPQEVIDTKCMGPKDCLYPNPDSCTTYIQCVPLDEVGNAKPVVKPCPKGLQWNDNVGKKWCDYPNLSTCPVKTPQ", "values": [
      {"measurement": "Cf-4-mediated HR after protein infiltration", "setting": "[1]", "value": "strong and equal in intensity HR; also recorded: strong hypersensitive response (HR); also recorded: strong and equally in intensity necrosis"},
      {"measurement": "HR on transient co-expression with Cf-4", "setting": "[2]", "value": "strong and similar in intensity HR"},
      {"measurement": "higher binding affinity for (GlcNAc)6 than PfAvr4", "setting": "[3]", "value": 10, "unit": "fold"},
      {"measurement": "Stability (Subtilisin assay)", "setting": "[4]", "value": "S"},
      {"measurement": "HR after protein infiltration", "setting": "[5]", "value": "none of the mutants or the WT-CfAvr4 induced an HR; also recorded: None of the proteins, WT-CfAvr4 or mutants, elicited an HR"},
      {"measurement": "morphology of hyphae after chitinase treatment", "setting": "[6]", "value": "remained morphologically intact"},
      {"measurement": "protection of fungal hyphae against chitinases, fungal growth", "setting": "[6]; 6–8 h", "value": "enabled fungal growth and survival; also recorded: able to protect hyphae"}
    ]}
  ]
}
